Reference: the supplement of paper PMC5998384

Legend:
[1] = system: HeLa Kyoto; assay: solubility change mitosis vs G1/S (difference of NP-40 vs SDS log2 ratios) (log2 ratio difference); higher = more soluble in mitosis
[2] = system: HeLa Kyoto; assay: thermal stability score vs G1/S (z-score of summed log2 fold changes over temperatures); higher = more thermally stable than in G1/S
[3] = system: HeLa Kyoto; assay: solubility in G1/S (NP-40 vs SDS abundance) (log2 ratio); higher = more soluble; conditions: cell cycle stage: G1/S
[4] = system: HeLa Kyoto; assay: melting temperature (median over replicates), in situ; higher = more thermally stable
[5] = cell cycle stage: early G1 (4.5 h after nocodazole release)
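For melting temperature (median over replicates), in situ in this document: HeLa Kyoto cells synchronized by double thymidine or nocodazole block, proteins quantified by TMT10plex mass spectrometry, three independent biological replicates.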
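For solubility change mitosis vs G1/S (difference of NP-40 vs SDS log2 ratios) in this document: synchronized HeLa Kyoto cells (double thymidine block for G1/S, nocodazole release for mitosis), protein amounts in NP-40 versus SDS lysates quantified by mass spectrometry, three biological replicates.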
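For solubility in G1/S (NP-40 vs SDS abundance) in this document: HeLa Kyoto cells arrested at G1/S by double thymidine block, proteins quantified by TMT10plex mass spectrometry in mild NP-40 versus SDS extracts, three biological replicates.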
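For thermal stability score vs G1/S (z-score of summed log2 fold changes over temperatures) in this document: synchronized HeLa Kyoto cells, proteins quantified by TMT10plex mass spectrometry, three biological replicates, mitosis taken 0.5 h after nocodazole release, G1/S directly after double thymidine block.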

SLC7A2, sequence (chain, as listed by the source): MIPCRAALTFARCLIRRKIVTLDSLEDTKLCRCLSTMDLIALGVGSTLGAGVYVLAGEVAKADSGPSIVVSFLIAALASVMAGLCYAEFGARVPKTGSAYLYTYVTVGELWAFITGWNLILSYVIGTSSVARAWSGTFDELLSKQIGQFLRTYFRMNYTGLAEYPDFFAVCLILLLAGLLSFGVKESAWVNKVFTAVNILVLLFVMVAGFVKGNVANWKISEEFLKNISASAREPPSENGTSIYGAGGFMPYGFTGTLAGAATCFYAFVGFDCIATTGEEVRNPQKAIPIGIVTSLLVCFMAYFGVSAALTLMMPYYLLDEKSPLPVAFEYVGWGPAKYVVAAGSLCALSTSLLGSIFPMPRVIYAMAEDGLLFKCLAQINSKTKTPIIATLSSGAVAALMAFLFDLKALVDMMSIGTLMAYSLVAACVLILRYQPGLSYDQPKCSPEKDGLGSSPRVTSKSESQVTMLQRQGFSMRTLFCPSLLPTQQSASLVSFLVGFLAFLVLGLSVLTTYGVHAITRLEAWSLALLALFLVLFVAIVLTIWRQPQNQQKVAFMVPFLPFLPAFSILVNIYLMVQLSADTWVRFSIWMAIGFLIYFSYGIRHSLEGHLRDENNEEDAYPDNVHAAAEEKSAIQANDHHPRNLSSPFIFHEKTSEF

MPNQGEDCYFFFYSTCTKGDSCPFRHCEAAIGNETVCTLWQEGRCFRQVCRFRHMEIDKKRSEIPCYWENQPTGCQKLNCAFHHNRGRYVDGLFLPPSKTVLPTVPESPEEEVKASQLSVQQNKLSVQSNPSPQLRSVMKVESSENVPSPTHPPVVINAADDDEDDDDQFSEEGDETKTPTLQPTPEVHNGLRVTSVRKPAVNIKQGECLNFGIKTLEEIKSKKMKEKSKKQGEGSSGVSSLLLHPEPVPGPEKENVRTVVRTVTLSTKQGEEPLVRLSLTERLGKRKFSAGGDSDPPLKRSLAQRLGKKVEAPETNIDKTPKKAQVSKSLKERLGMSADPDNEDATDKVNKVGEIHVKTLEEILLERASQKRGELQTKLKTEGPSKTDDSTSGARSSSTIRIKTFSEVLAEKKHRQQEAERQKSKKDTTCIKLKIDSEIKKTVVLPPIVASRGQSEEPAGKTKSMQEVHIKTLEEIKLEKALRVQQSSESSTSSPSQHEATPGARRLLRITKRTGMKEEKNLQEGNEVDSQSSIRTEAKEASGETTGVDITKIQVKRCETMREKHMQKQQEREKSVLTPLRGDVASCNTQVAEKPVLTAVPGITRHLTKRLPTKSSQKVEVETSGIGDSLLNVKCAAQTLEKRGKAKPKVNVKPSVVKVVSSPKLAPKRKAVEMHAAVIAAVKPLSSSSVLQEPPAKKAAVAVVPLVSEDKSVTVPEAENPRDSLVLPPTQSSSDSSPPEVSGPSSSQMSMKTRRLSSASTGKPPLSVEDDFEKLIWEISGGKLEAEIDLDPGKDEDDLLLELSEMIDS [ZC3H11A]
solubility change mitosis (log2) [1]: 0.559
thermal stability score [2, 5]: 2.36
thermal stability score ([2]; cell cycle stage: mitosis): 7.44
solubility in G1/S (log2) [3]: -0.583
melting temperature ([4]; cell cycle stage: G1/S): 45.8 °C
melting temperature ([4]; cell cycle stage: mitosis): 48.6 °C

ANKHD1
solubility change mitosis (log2) [1]: -0.0108
thermal stability score [2, 5]: 0.478
thermal stability score ([2]; cell cycle stage: mitosis): 1.9
solubility in G1/S (log2) [3]: -0.0494
melting temperature ([4]; cell cycle stage: G1/S): 47.9 °C
melting temperature ([4]; cell cycle stage: mitosis): 49.4 °C

SLC7A2
solubility change mitosis (log2) [1]: -0.149
thermal stability score [2, 5]: -3.64
thermal stability score ([2]; cell cycle stage: mitosis): -8.3
solubility in G1/S (log2) [3]: 0.0385
melting temperature ([4]; cell cycle stage: G1/S): 55.5 °C
melting temperature ([4]; cell cycle stage: mitosis): 57 °C

SRGAP2
solubility change mitosis (log2) [1]: 0.0509
thermal stability score [2, 5]: 0.993
thermal stability score ([2]; cell cycle stage: mitosis): 0.737
solubility in G1/S (log2) [3]: 0.0333
melting temperature ([4]; cell cycle stage: G1/S): 50 °C
melting temperature ([4]; cell cycle stage: mitosis): 50.5 °C

MNIVVEFFVVTFKVLWAFVLAAARWLVRPKEKSVAGQVCLITGAGSGLGRLFALEFARRRALLVLWDINTQSNEETAGMVRHIYRDLEAADAAALQAGNGEEEILPHCNLQVFTYTCDVGKRENVYLTAERVRKEVGEVSVLVNNAGVVSGHHLLECPDELIERTMMVNCHAHFWTTKAFLPTMLEINHGHIVTVASSLGLFSTAGVEDYCASKFGVVGFHESLSHELKAAEKDGIKTTLVCPYLVDTGMFRGCRIRKEIEPFLPPLKPDYCVKQAMKAILTDQPMICTPRLMYIVTFMKSILPFEAVVCMYRFLGADKCMYPFIAQRKQATNNNEAKNGI [RDH10]
solubility change mitosis (log2) [1]: -0.104
thermal stability score [2, 5]: -3.18
thermal stability score ([2]; cell cycle stage: mitosis): -3.77
solubility in G1/S (log2) [3]: -0.308
melting temperature ([4]; cell cycle stage: G1/S): 53.4 °C
melting temperature ([4]; cell cycle stage: mitosis): 52.9 °C

MAERKPNGGSGGASTSSSGTNLLFSSSATEFSFNVPFIPVTQASASPASLLLPGEDSTDVGEEDSFLGQTSIHTSAPQTFSYFSQVSSSSDPFGNIGQSPLTTAATSVGQSGFPKPLTALPFTTGSQDVSNAFSPSISKAQPGAPPSSLMGINSYLPSQPSSLPPSYFGNQPQGIPQPGYNPYRHTPGSSRANPYIAPPQLQQCQTPGPPAHPPPSGPPVQMYQMPPGSLPPVPSSVQSPAQQQVPARPGAPSVQVPSPFLLQNQYEPVQPHWFYCKEVEYKQLWMPFSVFDSLNLEEIYNSVQPDPESVVLGTDGGRYDVYLYDRIRKAAYWEEEPAEVRRCTWFYKGDTDSRFIPYTEEFSEKLEAEYKKAVTTNQWHRRLEFPSGETIVMHNPKVIVQFQPSSVPDEWGTTQDGQTRPRVVKRGIDDNLDEIPDGEMPQVDHLVFVVHGIGPVCDLRFRSIIECVDDFRVVSLKLLRTHFKKSLDDGKVSRVEFLPVHWHSSLGGDATGVDRNIKKITLPSIGRFRHFTNETLLDILFYNSPTYCQTIVEKVGMEINHLHALFMSRNPDFKGGVSVAGHSLGSLILFDILSNQKDLNLSKCPGPLAVANGVVKQLHFQEKQMPEEPKLTLDESYDLVVENKEVLTLQETLEALSLSEYFSTFEKEKIDMESLLMCTVDDLKEMGIPLGPRKKIANFVEHKAAKLKKAASEKKAVAATSTKGQEQSAQKTKDMASLPSESNEPKRKLPVGACVSSVCVNYESFEVGAGQVSVAYNSLDFEPEIFFALGSPIAMFLTIRGVDRIDENYSLPTCKGFFNIYHPLDPVAYRLEPMIVPDLDLKAVLIPHHKGRKRLHLELKESLSRMGSDLKQGFISSLKSAWQTLNEFARAHTSSTQLQEELEKVANQIKEEEEKQVVEAEKVVESPDFSKDEDYLGKVGMLNGGRRIDYVLQEKPIESFNEYLFALQSHLCYWESEDTALLLLKEIYRTMNISPEQPQH [SEC23IP]
solubility change mitosis (log2) [1]: -0.197
thermal stability score [2, 5]: -1.73
thermal stability score ([2]; cell cycle stage: mitosis): -1.12
solubility in G1/S (log2) [3]: 0.171
melting temperature ([4]; cell cycle stage: G1/S): 50.5 °C
melting temperature ([4]; cell cycle stage: mitosis): 50.3 °C

MAAPLRIQSDWAQALRKDEGEAWLSCHPPGKPSLYGSLTCQGIGLDGIPEVTASEGFTVNEINKKSIHISCPKENASSKFLAPYTTFSRIHTKSITCLDISSRGGLGVSSSTDGTMKIWQASNGELRRVLEGHVFDVNCCRFFPSGLVVLSGGMDAQLKIWSAEDASCVVTFKGHKGGILDTAIVDRGRNVVSASRDGTARLWDCGRSACLGVLADCGSSINGVAVGAADNSINLGSPEQMPSEREVGTEAKMLLLAREDKKLQCLGLQSRQLVFLFIGSDAFNCCTFLSGFLLLAGTQDGNIYQLDVRSPRAPVQVIHRSGAPVLSLLSVRDGFIASQGDGSCFIVQQDLDYVTELTGADCDPVYKVATWEKQIYTCCRDGLVRRYQLSDL [PAAF1]
solubility change mitosis (log2) [1]: -0.218
thermal stability score [2, 5]: -0.462
thermal stability score ([2]; cell cycle stage: mitosis): -0.84
solubility in G1/S (log2) [3]: -0.094
melting temperature ([4]; cell cycle stage: G1/S): 54 °C
melting temperature ([4]; cell cycle stage: mitosis): 53.9 °C

MSKYKLIMLRHGEGAWNKENRFCSWVDQKLNSEGMEEARNCGKQLKALNFEFDLVFTSVLNRSIHTAWLILEELGQEWVPVESSWRLNERHYGALIGLNREQMALNHGEEQVRLWRRSYNVTPPPIEESHPYYQEIYNDRRYKVCDVPLDQLPRSESLKDVLERLLPYWNERIAPEVLRGKTILISAHGNSSRALLKHLEGISDEDIINITLPTGVPILLELDENLRAVGPHQFLGDQEAIQAAIKKVEDQGKVKQAKK [BPGM]
solubility change mitosis (log2) [1]: -0.0036
thermal stability score [2, 5]: 1.51
thermal stability score ([2]; cell cycle stage: mitosis): 0.348
solubility in G1/S (log2) [3]: 0.328
melting temperature ([4]; cell cycle stage: G1/S): 53.1 °C
melting temperature ([4]; cell cycle stage: mitosis): 55.1 °C

MSRRRHSDENDGGQPHKRRKTSDANETEDHLESLICKVGEKSACSLESNLEGLAGVLEADLPNYKSKILRLLCTVARLLPEKLTIYTTLVGLLNARNYNFGGEFVEAMIRQLKESLKANNYNEAVYLVRFLSDLVNCHVIAAPSMVAMFENFVSVTQEEDVPQVRRDWYVYAFLSSLPWVGKELYEKKDAEMDRIFANTESYLKRRQKTHVPMLQVWTADKPHPQEEYLDCLWAQIQKLKKDRWQERHILRPYLAFDSILCEALQHNLPPFTPPPHTEDSVYPMPRVIFRMFDYTDDPEGPVMPGSHSVERFVIEENLHCIIKSHWKERKTCAAQLVSYPGKNKIPLNYHIVEVIFAELFQLPAPPHIDVMYTTLLIELCKLQPGSLPQVLAQATEMLYMRLDTMNTTCVDRFINWFSHHLSNFQFRWSWEDWSDCLSQDPESPKPKFVREVLEKCMRLSYHQRILDIVPPTFSALCPANPTCIYKYGDESSNSLPGHSVALCLAVAFKSKATNDEIFSILKDVPNPNQDDDDDEGFSFNPLKIEVFVQTLLHLAAKSFSHSFSALAKFHEVFKTLAESDEGKLHVLRVMFEVWRNHPQMIAVLVDKMIRTQIVDCAAVANWIFSSELSRDFTRLFVWEILHSTIRKMNKHVLKIQKELEEAKEKLARQHKRRSDDDDRSSDRKDGVLEEQIERLQEKVESAQSEQKNLFLVIFQRFIMILTEHLVRCETDGTSVLTPWYKNCIERLQQIFLQHHQIIQQYMVTLENLLFTAELDPHILAVFQQFCALQA [NCBP1]
solubility change mitosis (log2) [1]: -0.144
thermal stability score [2, 5]: 0.234
thermal stability score ([2]; cell cycle stage: mitosis): 0.31
solubility in G1/S (log2) [3]: -0.297
melting temperature ([4]; cell cycle stage: G1/S): 50 °C
melting temperature ([4]; cell cycle stage: mitosis): 50.4 °C

MAACRYCCSCLRLRPLSDGPFLLPRRDRALTQLQVRALWSSAGSRAVAVDLGNRKLEISSGKLARFADGSAVVQSGDTAVMVTAVSKTKPSPSQFMPLVVDYRQKAAAAGRIPTNYLRREIGTSDKEILTSRIIDRSIRPLFPAGYFYDTQVLCNLLAVDGVNEPDVLAINGASVALSLSDIPWNGPVGAVRIGIIDGEYVVNPTRKEMSSSTLNLVVAGAPKSQIVMLEASAENILQQDFCHAIKVGVKYTQQIIQGIQQLVKETGVTKRTPQKLFTPSPEIVKYTHKLAMERLYAVFTDYEHDKVSRDEAVNKIRLDTEEQLKEKFPEADPYEIIESFNVVAKEVFRSIVLNEYKRCDGRDLTSLRNVSCEVDMFKTLHGSALFQRGQTQVLCTVTFDSLESGIKSDQVITAINGIKDKNFMLHYEFPPYATNEIGKVTGLNRRELGHGALAEKALYPVIPRDFPFTIRVTSEVLESNGSSSMASACGGSLALMDSGVPISSAVAGVAIGLVTKTDPEKGEIEDYRLLTDILGIEDYNGDMDFKIAGTNKGITALQADIKLPGIPIKIVMEAIQQASVAKKEILQIMNKTISKPRASRKENGPVVETVQVPLSKRAKFVGPGGYNLKKLQAETGVTISQVDEETFSVFAPTPSAMHEARDFITEICKDDQEQQLEFGAVYTATITEIRDTGVMVKLYPNMTAVLLHNTQLDQRKIKHPTALGLEVGQEIQVKYFGRDPADGRMRLSRKVLQSPATTVVRTLNDRSSIVMGEPISQSSSNSQ [PNPT1]
solubility change mitosis (log2) [1]: -0.154
thermal stability score [2, 5]: 0.177
thermal stability score ([2]; cell cycle stage: mitosis): 1.84
solubility in G1/S (log2) [3]: 0.0945
melting temperature ([4]; cell cycle stage: G1/S): 49.8 °C
melting temperature ([4]; cell cycle stage: mitosis): 50 °C

MAAPAQQTTQPGGGKRKGKAQYVLAKRARRCDAGGPRQLEPGLQGILITCNMNERKCVEEAYSLLNEYGDDMYGPEKFTDKDQQPSGSEGEDDDAEAALKKEVGDIKASTEMRLRRFQSVESGANNVVFIRTLGIEPEKLVHHILQDMYKTKKKKTRVILRMLPISGTCKAFLEDMKKYAETFLEPWFKAPNKGTFQIVYKSRNNSHVNREEVIRELAGIVCTLNSENKVDLTNPQYTVVVEIIKAVCCLSVVKDYMLFRKYNLQEVVKSPKDPSQLNSKQGNGKEAKLESADKSDQNNTAEGKNNQQVPENTEELGQTKPTSNPQVVNEGGAKPELASQATEGSKSNENDFS [THUMPD1]
solubility change mitosis (log2) [1]: -0.0115
thermal stability score [2, 5]: 0.34
thermal stability score ([2]; cell cycle stage: mitosis): 2.04
solubility in G1/S (log2) [3]: 0.555
melting temperature ([4]; cell cycle stage: G1/S): 53.7 °C
melting temperature ([4]; cell cycle stage: mitosis): 54.3 °C

MSLKLQASNVTNKNDPKSINSRVFIGNLNTALVKKSDVETIFSKYGRVAGCSVHKGYAFVQYSNERHARAAVLGENGRVLAGQTLDINMAGEPKPDRPKGLKRAASAIYSGYIFDYDYYRDDFYDRLFDYRGRLSPVPVPRAVPVKRPRVTVPLVRRVKTNVPVKLFARSTAVTTSSAKIKLKSSELQAIKTELTQIKSNIDALLSRLEQIAAEQKANPDGKKKGDGGGAGGGGGGGGSGGGGSGGGGGGGSSRPPAPQENTTSEAGLPQGEARTRDDGDEEGLLTHSEEELEHSQDTDADDGALQ [RALY]
solubility change mitosis (log2) [1]: 0.275
thermal stability score [2, 5]: 2.9
thermal stability score ([2]; cell cycle stage: mitosis): 8.45
solubility in G1/S (log2) [3]: 0.116
melting temperature ([4]; cell cycle stage: G1/S): 47.1 °C
melting temperature ([4]; cell cycle stage: mitosis): 49.4 °C
